{"source": "patent US20110020842", "test_system": "T1, peptide TRPM7p (Ac-RKKYRIVWKSIFRRFL)", "T1 sequence": "RKKYRIVWKSIFRRFL", "data": [{"substance": "TRPM7 kinase", "values": [{"measurement": "fold increase in activity as compared to peptide MH-U", "result": "30 to 35", "unit": "fold increase in activity"}, {"measurement": "phosphorylation at a single substrate concentration (100 µM)", "result": "both peptides are efficiently phosphorylated by their respective kinases"}]}]}
